Data published in PMC3674885.
Like-named read-outs stand apart in the source and are kept apart here.

Legend:
[1] = molecular target: both classes of receptors (TrkA and p75) on PC12 cells (rat (endogenous in PC12)); assay: radioligand binding
[2] = molecular target: both classes of receptors (TrkA and p75) on PC12 cells (rat (endogenous in PC12)); assay: radioligand binding; remark: listed apart in the source
[3] = molecular target: TrkA receptor (rat) on MG139 cells (rat) (UniProt P35739); assay: radioligand binding
[4] = molecular target: TrkA receptor (rat) on MG139 cells (rat) (UniProt P35739)
[5] = molecular target: TrkA receptor (rat) on MG139 cells (rat) (UniProt P35739); assay: radioligand binding; remark: listed apart in the source
[6] = molecular target: high-affinity site on PC12 cells (cold-temperature, cold-chase stable binding) (rat (endogenous in PC12)); assay: radioligand binding
[7] = molecular target: 7-84-103 NGF mutein (F7A/H84A/R103A); assay: native gel or EMSA + other: high-performance ion-exchange chromatography; details: native gel or EMSA + other: high-performance ion-exchange chromatography (HPIEC)

Sequence of UniProt P35739 (P35739 33-799): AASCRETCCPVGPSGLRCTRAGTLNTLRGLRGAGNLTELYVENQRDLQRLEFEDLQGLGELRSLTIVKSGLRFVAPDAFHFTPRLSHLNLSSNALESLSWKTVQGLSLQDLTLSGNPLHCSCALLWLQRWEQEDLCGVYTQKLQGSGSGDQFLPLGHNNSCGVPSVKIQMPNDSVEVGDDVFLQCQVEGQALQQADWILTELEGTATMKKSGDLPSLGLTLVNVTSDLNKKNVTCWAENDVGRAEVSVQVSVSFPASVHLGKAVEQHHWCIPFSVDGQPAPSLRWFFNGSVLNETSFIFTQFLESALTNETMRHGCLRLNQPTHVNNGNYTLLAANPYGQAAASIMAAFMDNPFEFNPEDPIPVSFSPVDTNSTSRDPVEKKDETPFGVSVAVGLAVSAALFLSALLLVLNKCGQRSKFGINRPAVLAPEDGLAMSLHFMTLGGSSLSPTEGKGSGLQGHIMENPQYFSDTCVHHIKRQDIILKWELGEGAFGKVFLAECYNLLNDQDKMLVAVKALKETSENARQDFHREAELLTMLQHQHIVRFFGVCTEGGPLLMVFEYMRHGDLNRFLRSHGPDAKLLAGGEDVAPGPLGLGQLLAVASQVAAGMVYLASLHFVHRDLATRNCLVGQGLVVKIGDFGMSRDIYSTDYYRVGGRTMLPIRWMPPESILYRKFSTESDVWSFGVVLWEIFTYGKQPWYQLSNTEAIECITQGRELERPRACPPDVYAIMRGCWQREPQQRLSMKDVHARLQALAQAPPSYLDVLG

| Molecule | IC50 [1] | IC50 [2] | IC50 [3] | XTT assay of survival of MG139 cells (TrkA+/p75-), 72 hr, EC50 [4] | trypan blue survival assay of PC12 cells (TrkA+/p75+), 72 hr, EC50 [4] | IC50 [5] | neurite outgrowth of PC12 cells, 48 hr, EC50 [4] | percent of ^125I-NGF binding left at the plateau of the competition curve [2] | percent of the cold-chase stable ^125I-NGF binding competed away [6] | percent of the protein as heterodimer Htm1 in the 1:1 mixture (Mix1a) [7] | percent of the protein as heterodimer Htm1 in the 1:2 mixture (Mix1) [7] |
| --- | --- | --- | --- | --- | --- | --- | --- | --- | --- | --- | --- |
| 7-84-103 NGF mutein (F7A/H84A/R103A) (ligand) | 1.9 nM | 2.45 nM | 11.5 nM | 17 nM | 1.26 nM | 15 nM | – | – | – | – | – |
| Heteromutein 1 (heterodimer of the Δ9/13 and 7-84-103 NGF muteins) (from UniProt P01139 122-241) (complex) | 0.53 nM | 0.59 nM | 0.67 nM | 19 nM | 0.47 nM | 0.64 nM | 1.8 nM | – | – | – | – |
| wild-type nerve growth factor (unlabelled) (from UniProt P01139 122-241) (ligand) | – | 0.25 nM | 0.03 nM | – | 0.28 nM | – | – | – | – | – | – |
| Δ9/13 NGF mutein (from UniProt P01139 122-241) (ligand) | 0.51 nM | 0.46 nM | – | – | – | – | – | 20% | 27% | – | – |
| Δ9/13 NGF mutein (protein) SSTHPVFHMGEFSVCDSVSVWVGDKTTATDIKGKEVTVLAEVNINNSVFRQYFFETKCRASNPVESGCRGIDSKHWNSYCTTTHTFVKALTTDEKQAAWRFIRIDTACVCVLSRKATRRG | – | – | – | – | – | – | – | – | – | 40% in Mix1a | 37.5% in Mix1 |
